The values that follow come from patent publication US20230265192A1 (GIGAGEN, published 2023).

Experiment [1] concerns the target T1, His-tagged cynomolgus CTLA-4 (CT4-C5227; Acro Biosystems) (cynomolgus, UniProt G7PL88 36-161).
T1 construct: also called soluble cynomolgus CTLA-4; cyno CTLA-4
The experiment in a line: BLI (Octet). The method, boiled down:
(§1)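 Antibodies captured on anti-human IgG Fc (AHC) biosensors (Octet Red96); antigen analyte from 300 nM in 6 serial 1:3 dilutions. Kinetics from global fitting to a 1:1 binding model.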

Experiment [2] deals with mouse CTLA-4 (mouse, UniProt P09793 36-161, limits assumed). Briefly: BLI (Octet). An outline of the steps: as §1
Chain of mouse CTLA-4 (P09793 36-161 limits assumed): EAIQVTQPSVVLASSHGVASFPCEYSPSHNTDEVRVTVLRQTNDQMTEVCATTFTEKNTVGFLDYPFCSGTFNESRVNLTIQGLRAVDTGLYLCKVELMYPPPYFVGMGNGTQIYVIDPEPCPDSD
In experiment [3] the target is human CTLA-4 expressed on the cell surface (human, UniProt P16410 36-223). Briefly: cell-based or functional assay.
Chain of human CTLA-4 expressed on the cell surface (P16410 36-223 limits assumed): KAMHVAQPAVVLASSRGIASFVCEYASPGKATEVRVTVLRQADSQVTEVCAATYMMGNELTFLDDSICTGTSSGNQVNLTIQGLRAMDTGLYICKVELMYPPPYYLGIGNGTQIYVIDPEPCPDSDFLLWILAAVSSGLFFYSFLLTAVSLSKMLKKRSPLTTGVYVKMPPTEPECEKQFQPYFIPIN
Experiment [4] addresses T2, recombinant human CTLA-4-Fc (7268-CT, R&D Systems) (human, UniProt P16410 36-162).
T2 construct: bought; also called rhCTLA-4-Fc; rhCTLA4-Fc; Fc part of the bought chimera not given
The experiment in a line: blocking ELISA, coated CTLA-4-Fc, competitor His-CD80. How it is done:
(§2) Table 24. […] Summary of blocking ELISA data from FIG. 13B. […] The data were then analyzed and fit by nonlinear regression.
(§3) ELISA plates (Nunc, MaxiSorp ELISA plates, flat bottom, uncoated, BioLegend, San Diego, Calif., USA) were coated with recombinant human CTLA-4-Fc (7268-CT, R&D Systems, Minneapolis, Minn., USA) at 1 μg/mL overnight at 4° C. Plates were then blocked with 5% milk in phosphate buffered saline with tween 20 (PBST) for 1 hour at room temperature. A titration series of the indicated mAbs was then added to the plates and then the plates were incubated for 1 hour at room temperature to allow mAb binding. Excess, unbound mAb was removed by washing with PBST. […] After incubation for 1 hour at room temperature, the plates were washed to remove unbound ligand. Bound ligand was detected with a horseradish peroxidase (HRP)-conjugated anti-His antibody (652504, BioLegend, San Diego, Calif., USA). After incubation for 1 hour at room temperature and washing, the plates were developed with 3,3′,5,5′-Tetramethylbenzidine (TMB) substrate (34028, Pierce, Waltham, Mass., USA). […] Absorbance at 450 nm was read using a Spectramax i3x plate reader (Molecular Devices. San Jose, Calif., USA). Half maximal inhibitory concentration (IC50) values were calculated by plotting absorbance versus the log of concentration using Prism (GraphPad, San Diego, Calif., USA).

The target of experiment [5] is T2, recombinant human CTLA-4-Fc (7268-CT, …). The experiment in a line: blocking ELISA, plate rhCTLA4-Fc, competitor rhCD86-His. The protocol:
(§4) Plates were coated with rhCTLA4-Fc and then blocked with 1×PBST with 5% w/v nonfat dry milk. After blocking a dilution series of the indicated antibody was added to the plate.

The target is the same in experiment [6]. The experiment in a line: blocking ELISA, coated CTLA-4-Fc, competitor His-CD86. The protocol:
as §2, §3

Experiment [7] has as its target T3, His-tagged human CTLA-4 (CT4-H5229; Acro Biosystems) (human, UniProt P16410 36-161).
T3 construct: bought soluble protein; also called soluble human CTLA-4; recombinant human CTLA-4; not shown: His tag
The experiment in a line: SPR (Carterra). The method, boiled down: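 mAb supernatants captured, at two densities, on an anti-human IgG Fc lawn. His-tagged human CTLA-4 injected at 1.95, 7.8, 31.25, 125 and 500 nM in HBS-EPC pH 7.4 with 1.0 mg/mL BSA, as a non-regenerative series with 5-min association and 15-min dissociation. Double-referenced data fitted for ka, kd and KD.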

The target of experiment [8] is T2, recombinant human CTLA-4-Fc (7268-CT, …). The experiment in a line: blocking ELISA, plate rhCTLA4-Fc, competitor rhCD80-His. The protocol:
as §4

The target in experiment [9] is T3, His-tagged human CTLA-4 (CT4-H5229; …). Briefly: SPR (Carterra), soluble human CTLA-4.

T3 sequence (P16410 36-161 limits assumed): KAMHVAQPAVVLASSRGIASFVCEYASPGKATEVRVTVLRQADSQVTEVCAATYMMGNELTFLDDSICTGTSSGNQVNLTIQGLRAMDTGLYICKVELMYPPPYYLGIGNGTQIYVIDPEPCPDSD
T1 sequence (G7PL88 entry or part of it limits assumed, form in doubt): as the sequence (P16410 36-161 limits assumed) above, with S14N, I18T, L106M counted along it
T2 sequence (P16410 36-162): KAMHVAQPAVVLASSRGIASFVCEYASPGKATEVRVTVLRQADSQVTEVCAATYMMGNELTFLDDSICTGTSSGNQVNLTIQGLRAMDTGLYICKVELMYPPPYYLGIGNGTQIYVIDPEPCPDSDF

B1: antibody A5 (L5H5) (antibody, V domains shown)
VH: QVQLVESGGGVVQPGRSLRLSCAASGFTFSSYGMHWVRQAPGKGLEWVAVIWYDGNNKYYADSVKGRFTISRDNSKNTLYLQMYSLRAEDTAVYYCARGGILAAGIFDYWGQGTLVTVSS
VL: EIVLTQSPGTLSLSPGDRATLSCRASQSGSSSYLAWYQQKPGQAPRLLIYGASSRATGIPDRFSGSGSGTDFTLTISRLEPEDFAVYYCQQYGTSPFTSGPGTKVDIK
notes: also called aCTLA-4.28; CTLA4.A5
As to B1, the Kd in experiment [1] was 2.2 nM. In experiment [2], the dissociation constant Kd worked out at 39.4 nM. Moreover, in [3], the “Cell-based blocking activity EC50” value turned out to be 0.18 µg/mL and the “Cell-based blocking activity max signal (RLU)” value turned out to be 548 RLU. For the same molecule, the IC50 in experiment [4] is 0.12 µg/mL. Further, in [5], the CD86 % inhibition came out at 90.6% and the EC50 came to 0.122 µg/mL. In addition, in experiment [6], the IC50 came out at 0.12 µg/mL. Moreover, in experiment [7], the Kd was determined as 4.6 nM. Besides, in [8], the CD80 % inhibition stood at 96.3% and the EC50 worked out at 0.0705 µg/mL. In [9], the affinity, expressed as Kd, was 4.6 nM; the koff is 0.00042 s⁻¹; the kon was 90000 M⁻¹ s⁻¹.

B2: antibody A7 (L7H7) (antibody, V domains shown)
VH: QVQLVESGGGVVQPGRSLRLSCAASGFTLSSFGMHWVRQAPGKGLEWVAVIWYDGSNKYYADSVKGRFIISRDNSKTALYLQMNSLRAEDTAVYYCARAHYFGAFDIWGQGTMVTVSS
VL: not shown
notes: also called aCTLA-4.3; CTLA4.A7
B2 yielded an equilibrium dissociation constant (Kd) in [1] of 0.75 nM. In experiment [2], the binding result is “no binding (tested: 300 nM)”. Further, in experiment [3], the “Cell-based blocking activity EC50” value came out at 0.17 µg/mL and the “Cell-based blocking activity max signal (RLU)” value was found to be 63 RLU. Further, in experiment [5], the CD86 % inhibition is 78.8% and the EC50 came out at 1.98 µg/mL. This molecule also registered an equilibrium dissociation constant (Kd) in [7] of 5.7 nM. In addition, in [8], the CD80 % inhibition was found to be 92.1% and the 50% effective concentration (EC50) came to 0.996 µg/mL. In experiment [9], this molecule registered a dissociation constant Kd of 5.7 nM, a koff of 0.00036 s⁻¹ and a kon of 64000 M⁻¹ s⁻¹.

B3: antibody A2 (L2H2) (antibody, V domains shown)
VH: QVQLVESGGGVVQPGRSLRLSCAASGFTFSNYGMNWVRQAPGKGLEWVAVIWYDGRNKHYADSVKGRFTISRDNSKNTLYLQMNSLRAEDTAVYYCARGGDWGPYFDYWGQGTLVTVSS
VL: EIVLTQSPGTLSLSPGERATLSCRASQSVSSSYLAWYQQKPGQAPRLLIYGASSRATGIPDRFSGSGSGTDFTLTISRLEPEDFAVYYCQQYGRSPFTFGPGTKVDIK
notes: also called aCTLA-4.4; CTLA4.A2
As for B3, in experiment [1], the dissociation constant (Kd) came out at 3.1 nM. The binding result in [2] is reported as “no binding (tested: 300 nM)”. Besides, in experiment [3], the “Cell-based blocking activity EC50” value worked out at 0.12 µg/mL and the “Cell-based blocking activity max signal (RLU)” value worked out at 413 RLU. In [5], the CD86 % inhibition was 91.5% and the EC50 turned out to be 0.145 µg/mL. The molecule also displayed a Kd in experiment [7] of 5.1 nM. In experiment [8], the CD80 % inhibition amounted to 95.4% and the EC50 came to 0.101 µg/mL. In experiment [9], this molecule yielded an equilibrium dissociation constant (Kd) of 5.1 nM, an off-rate (koff) of 0.00052 s⁻¹ and an on-rate (kon) of 100000 M⁻¹ s⁻¹.
